Data on one molecule can be found in paper PMC2665219 (Nucleic Acids Research, 2009).

Common to all, as to experiment: EMSA
Data set [1] concerns the target T1, EbfC (Borrelia burgdorferi, UniProt O51418 1-99).
T1 sequence: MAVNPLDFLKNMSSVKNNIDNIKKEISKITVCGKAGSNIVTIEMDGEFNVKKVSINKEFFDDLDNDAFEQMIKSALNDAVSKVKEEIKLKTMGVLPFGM

Another data set deals with T2, EbfC K82A (Borrelia burgdorferi, UniProt O51418 1-99, K82A).
T2 sequence: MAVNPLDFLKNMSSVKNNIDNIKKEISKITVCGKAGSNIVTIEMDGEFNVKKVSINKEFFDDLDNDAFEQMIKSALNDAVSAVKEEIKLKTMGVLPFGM

Another data set addresses T3, EbfC K88A (Borrelia burgdorferi, UniProt O51418 1-99, K88A).
T3 sequence: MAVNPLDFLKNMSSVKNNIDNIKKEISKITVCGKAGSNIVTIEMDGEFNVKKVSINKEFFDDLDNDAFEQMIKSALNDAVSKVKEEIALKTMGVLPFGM

Another data set deals with T4, EbfC D20A (Borrelia burgdorferi, UniProt O51418 1-99, D20A).
T4 sequence: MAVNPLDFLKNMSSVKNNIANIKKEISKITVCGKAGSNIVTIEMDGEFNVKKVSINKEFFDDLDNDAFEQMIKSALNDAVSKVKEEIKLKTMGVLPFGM

In the next data set the target is T5, EbfC E85A (Borrelia burgdorferi, UniProt O51418 1-99, E85A).
T5 sequence: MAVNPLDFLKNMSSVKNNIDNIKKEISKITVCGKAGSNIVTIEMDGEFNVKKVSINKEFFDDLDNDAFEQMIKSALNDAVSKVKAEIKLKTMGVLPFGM

A further data set has as its target T6, EbfC K16A (Borrelia burgdorferi, UniProt O51418 1-99, K16A).
T6 sequence: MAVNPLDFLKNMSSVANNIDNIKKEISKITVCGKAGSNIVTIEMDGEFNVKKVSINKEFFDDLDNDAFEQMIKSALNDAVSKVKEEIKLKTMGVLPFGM

The target in another data set is T7, EbfC D78A (Borrelia burgdorferi, UniProt O51418 1-99, D78A).
T7 sequence: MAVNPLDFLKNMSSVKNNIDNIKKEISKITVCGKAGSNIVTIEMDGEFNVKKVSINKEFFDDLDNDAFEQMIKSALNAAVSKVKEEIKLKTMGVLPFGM

In a further data set the target is T8, EbfC N77A (Borrelia burgdorferi, UniProt O51418 1-99, N77A).
T8 sequence: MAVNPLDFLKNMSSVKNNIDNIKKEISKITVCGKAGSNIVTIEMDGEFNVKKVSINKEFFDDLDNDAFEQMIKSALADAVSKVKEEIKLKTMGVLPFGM

The next data set addresses T9, EbfC K84A (Borrelia burgdorferi, UniProt O51418 1-99, K84A).
T9 sequence: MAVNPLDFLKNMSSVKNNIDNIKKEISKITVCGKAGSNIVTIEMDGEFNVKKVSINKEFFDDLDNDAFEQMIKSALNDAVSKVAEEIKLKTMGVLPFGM

The next data set has as its target T10, EbfC K23A (Borrelia burgdorferi, UniProt O51418 1-99, K23A).
T10 sequence: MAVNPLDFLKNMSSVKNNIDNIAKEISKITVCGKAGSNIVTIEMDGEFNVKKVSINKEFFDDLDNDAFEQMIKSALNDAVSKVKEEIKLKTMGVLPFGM

For data set [2], the target named is T1, EbfC. The source holds these as a separate data set.

Like-named read-outs stand apart in the source and are kept apart here.

B1: b-WT (dsDNA)
DNA 1: TTGTAATGAGTAGTGCATTTGCAATGGAGAGATTTTGGGGAGTTGTTTAAAATTACATTTGCGTTTTGTTAAAATGTAACAGCTGAATGTAACAAAATTATATATTTAAATCTTTGAAATATTGC
DNA 2: GCAATATTTCAAAGATTTAAATATATAATTTTGTTACATTCAGCTGTTACATTTTAACAAAACGCAAATGTAATTTTAAACAACTCCCCAAAATCTCTCCATTGCAAATGCACTACTCATTACAA
As a reminder, the Kd is the concentration at which binding is half-saturated. A low value points to higher affinity. In the case of B1, the Kd came to 313 nM with EbfC [1] and 388 ± 108 nM in the data set with EbfC [2]. For the same molecule, the binding result in the data set with EbfC K82A, in the data set with EbfC K88A, with EbfC D20A, in the data set with EbfC E85A, in the data set with EbfC K16A and with EbfC D78A was “no binding” in each case. Also, the binding result with EbfC N77A, with EbfC K84A and with EbfC K23A was “no binding” in each case.
